Results: PMC5913291

Target: T1, Interferon regulatory factor 3 (IRF-3) (human (endogenous in HEK293T)), Q14653
T1 chain: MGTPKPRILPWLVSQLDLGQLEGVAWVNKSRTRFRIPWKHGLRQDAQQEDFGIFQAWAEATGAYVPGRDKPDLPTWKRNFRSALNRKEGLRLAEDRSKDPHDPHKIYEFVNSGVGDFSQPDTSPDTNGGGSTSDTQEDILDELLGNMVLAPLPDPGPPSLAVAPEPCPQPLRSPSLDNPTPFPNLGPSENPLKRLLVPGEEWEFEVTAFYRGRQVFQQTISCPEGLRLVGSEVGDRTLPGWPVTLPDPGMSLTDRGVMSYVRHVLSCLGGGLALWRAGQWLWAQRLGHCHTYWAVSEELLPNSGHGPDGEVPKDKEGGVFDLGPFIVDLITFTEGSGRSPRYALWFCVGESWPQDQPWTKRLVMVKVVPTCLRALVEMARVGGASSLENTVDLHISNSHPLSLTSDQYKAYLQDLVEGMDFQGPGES
Assay: native gel or EMSA; lysates of HEK293T cells transfected with HCV 3'-UTR RNA, left untreated or treated with 2.5 mM cFP, 12 h post-transfection; native PAGE and immunoblot for IRF-3 dimers
Conditions: remark: other sources report otherwise

B1: Interferon regulatory factor 3 (IRF-3), Q14653 1-427 (natural protein)
chain: T1 chain
stoichiometry N: 2
